We go through six substances from patent publication US20250320281A1.

Targets include aMLV envelope (aMLV); HIV-1 APV6 Env (HIV-1); HIV-1 APV17 Env (HIV-1).
Holding throughout (experiment): cell-based or functional assay
Assay [1] deals with HIV-1 Env of isolate CAP45 (clade C pseudovirus) (HIV-1).
Assay [2] has as its target HIV-1 Env of isolate ZM214 (clade C pseudovirus) (HIV-1).
Assay [3] addresses HIV-1 Env of isolate CAAN (clade B pseudovirus) (HIV-1).
Assay [4] concerns the target HIV-1 Env of isolate ZM233 (clade C pseudovirus) (HIV-1).
The target of assay [5] is HIV-1 Env of isolate Du172 (clade C pseudovirus) (HIV-1).
In assay [6] the target is HIV-1 APV6 envelope glycoprotein (Env) on pseudovirus (HIV-1 isolate APV6 (clade B)).
Assay [7] addresses HIV-1 MGRM-C-026 envelope glycoprotein (Env) on pseudovirus (HIV-1 isolate MGRM-C-026 (clade C)).
The target of assay [8] is HIV-1 92UG024 envelope glycoprotein (Env) on pseudovirus (HIV-1 isolate 92UG024 (clade D)).
Assay [9] deals with HIV-1 MGRM-D-018 envelope glycoprotein (Env) on pseudovirus (HIV-1 isolate MGRM-D-018 (clade D)).
Assay [10] deals with HIV-1 MGRM-AG-005 Env (HIV-1).
Assay [11] deals with HIV-1 MGRM-C-028 Env (HIV-1).
Assay [12] has as its target HIV-1 MGRM-C-026 Env (HIV-1).
In assay [13] the target is HIV-1 MGRM-D-018 Env (pseudovirus) (HIV-1 isolate MGRM-D-018 (clade D)).
Assay [14] has as its target HIV-1 92BR020 Env (pseudovirus) (HIV-1 isolate 92BR020 (clade B)).
Assay [15] addresses HIV-1 MGRM-C-027 Env (pseudovirus) (HIV-1 isolate MGRM-C-027 (clade C)).
For assay [16], the target named is HIV-1 93UG077 Env (pseudovirus) (HIV-1 isolate 93UG077 (clade A)).
In assay [17] the target is HIV-1 Env of isolate MG RM-D-029 (clade D), on pseudovirus (HIV-1).
In assay [18] the target is HIV-1 Env of isolate MG RM-D-018 (clade D), on pseudovirus (HIV-1).
The target of assay [19] is HIV-1 Env of pseudovirus MGRM-A-006 (subtype A) (HIV-1).
Assay [20] addresses HIV-1 Env of isolate MGRM-F1-015 (clade F), on pseudovirus (HIV-1).
For assay [21], the target named is HIV-1 Env of pseudovirus 93UG077 (subtype A) (HIV-1).
In assay [22] the target is HIV-1 Env of isolate MGRM-F1-014 (clade F), on pseudovirus (HIV-1).
Assay [23] concerns the target HIV-1 Env of isolate APV13 (HIV-1).
Assay [24] deals with HIV-1 Env of isolate MGRM-F1-023 (clade F pseudovirus) (HIV-1).
The target in assay [25] is HIV-1 Env of pseudovirus MGRM-A-008 (subtype A) (HIV-1).
The target in assay [26] is HIV-1 Env of isolate MG RM-D-021 (clade D), on pseudovirus (HIV-1).
In assay [27] the target is HIV-1 Env of isolate MGRM-Chronic-B-011 (HIV-1).
Assay [28] addresses HIV-1 Env of pseudovirus MGRM-AG-012 (subtype AG) (HIV-1).
Assay [29] deals with HIV-1 Env of pseudovirus MGRM-AG-006 (subtype AG) (HIV-1).
Assay [30] deals with HIV-1 Env of pseudovirus MGRM-AG-011 (subtype AG) (HIV-1).
The target of assay [31] is HIV-1 Env of isolate MGRM-F1-006 (HIV-1).
For assay [32], the target named is HIV-1 Env of pseudovirus MGRM-AG-005 (subtype AG) (HIV-1).
The target in assay [33] is HIV-1 Env of pseudovirus MGRM-AE-007 (subtype AE) (HIV-1).
The target in assay [34] is HIV-1 Env of pseudovirus MGRM-AE-008 (subtype AE) (HIV-1).

Chain of 1443_C16 (PG16) (TCN-116) (antibody) (VH): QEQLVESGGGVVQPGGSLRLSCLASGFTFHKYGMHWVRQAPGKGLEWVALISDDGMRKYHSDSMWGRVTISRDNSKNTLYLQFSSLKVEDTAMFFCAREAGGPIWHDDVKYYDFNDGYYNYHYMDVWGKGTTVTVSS
Chain of 1443_C16 (PG16) (TCN-116) (antibody) (VL): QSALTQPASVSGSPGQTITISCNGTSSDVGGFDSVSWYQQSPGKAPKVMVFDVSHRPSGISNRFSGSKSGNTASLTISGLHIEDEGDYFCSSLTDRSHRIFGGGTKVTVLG

On to 1443_C16 (PG16) (TCN-116) (antibody), for which the IC50 (neutralization, TZM-bl pseudovirus assay) in [1] is less than 0.01 µg/mL; in assay [2], more than 25 µg/mL; in assay [3] it was 6.37 µg/mL; in assay [4], less than 0.01 µg/mL; in [5], less than 0.01 µg/mL.
For the substance 1496_C09 (PG9) (TCN-109) (antibody), in assay [6], the neutralization IC50 was found to be 0.214 µg/mL, the neutralization IC80 is 1.13 µg/mL, the neutralization IC90 is 3.21 µg/mL and the neutralization IC95 was found to be 9.65 µg/mL. The substance also showed a neutralization IC50 in assay [7] of 0.113 µg/mL. Further, in assay [8], the neutralization IC50 amounted to 1.91 µg/mL. In addition, in assay [9], the neutralization IC50 is 0.0444 µg/mL, the neutralization IC80 was 0.18 µg/mL, the neutralization IC90 amounted to 0.43 µg/mL and the neutralization IC95 was 1.05 µg/mL.
For the substance 4877_D15 (PGT-122) (antibody), the Neutralization by PGT-122, IC50 in the assay with aMLV envelope (aMLV) was more than 10 µg/mL; in assay [10], more than 10 µg/mL; in assay [11] it was 2.06 µg/mL; with HIV-1 APV6 Env (HIV-1) it was 0.0851 µg/mL; with HIV-1 APV17 Env (HIV-1), 0.522 µg/mL; in [12] it was 8.9 ng/mL. Also, the Neutralization by PGT-122, IC80 with aMLV envelope (aMLV) is more than 10 µg/mL; in assay [10], more than 10 µg/mL; in [11], more than 10 µg/mL; with HIV-1 APV6 Env (HIV-1), 0.351 µg/mL; in the assay with HIV-1 APV17 Env (HIV-1) it was 1.76 µg/mL; in assay [12], 0.037 µg/mL. For the same substance, the Neutralization by PGT-122, IC90 is more than 10 µg/mL in the assay with aMLV envelope (aMLV); more than 10 µg/mL in assay [10]; more than 10 µg/mL in assay [11]; 0.779 µg/mL with HIV-1 APV6 Env (HIV-1); 3.58 µg/mL with HIV-1 APV17 Env (HIV-1); 0.0849 µg/mL in assay [12]. The Neutralization by PGT-122, IC95 in the assay with aMLV envelope (aMLV) is more than 10 µg/mL; in [10], more than 10 µg/mL; in assay [11], more than 10 µg/mL; with HIV-1 APV6 Env (HIV-1), 1.55 µg/mL; in the assay with HIV-1 APV17 Env (HIV-1), 6.92 µg/mL; in assay [12] it was 0.181 µg/mL.
In [13], 5123_A06 (PGT-125) (antibody) yielded a Neutralization by PGT-125, IC50 of 0.0382 µg/mL; a Neutralization by PGT-125, IC80 of 0.144 µg/mL; a Neutralization by PGT-125, IC90 of 0.339 µg/mL; a Neutralization by PGT-125, IC95 of 0.892 µg/mL. In assay [14], this substance returned a Neutralization by PGT-125, IC50 of 0.0214 µg/mL; a Neutralization by PGT-125, IC80 of 0.0738 µg/mL; a Neutralization by PGT-125, IC90 of 0.156 µg/mL; a Neutralization by PGT-125, IC95 of 0.323 µg/mL. In assay [15], this substance displayed a Neutralization by PGT-125, IC50 of more than 10 µg/mL; a Neutralization by PGT-125, IC80 of more than 10 µg/mL; a Neutralization by PGT-125, IC90 of more than 10 µg/mL; a Neutralization by PGT-125, IC95 of more than 10 µg/mL. In assay [16], this substance yielded a Neutralization by PGT-125, IC50 of 0.0262 µg/mL; a Neutralization by PGT-125, IC80 of 0.0926 µg/mL; a Neutralization by PGT-125, IC90 of 0.206 µg/mL; a Neutralization by PGT-125, IC95 of 0.487 µg/mL.
PGV04 (antibody): the IC50 (µg/mL), pseudovirus neutralization in assay [17] stood at 1.56 µg/mL; in [18], 17.5 µg/mL; in assay [20] it was 0.179 µg/mL; in assay [22], 0.02 µg/mL; in assay [23] it was 1.23 µg/mL; in assay [24], 0.171 µg/mL. Moreover, the figures for the IC50 (µg/mL), pseudovirus neutralization in [26] and in assay [27] were more than 50 µg/mL and 0.497 µg/mL, respectively. The IC50, pseudovirus neutralization in assay [19] worked out at 0.244 µg/mL; in assay [21], 0.083 µg/mL; in assay [25], 0.555 µg/mL.
The term IC50 denotes the concentration at which inhibition is half-maximal. Low values mean greater potency, high ones weaker potency. Take VRC01 (antibody): the IC50, pseudovirus neutralization in assay [28] amounted to 0.031 µg/mL; in [29], 0.344 µg/mL; in [30] it was 0.084 µg/mL; in assay [32] it was 0.091 µg/mL; in [33], 0.835 µg/mL; in assay [34], 1.72 µg/mL. In assay [31], this substance came in with an IC50 of 2.86 µg/mL.
